B1: L115A + A34: rpST with leucine 115 changed to alanine, A34 background (protein, UniProt P01248 27-216, looked up, variant L115A)
Somatotropin: FPAMPLSSLFANAVLRAQHLHQLAADTYKEFERAYIPEGQRYSIQNAQAAFCFSETIPAPTGKDEAQQRSDVELLRFSLLLIQSWLGPVQFLSRVFTNSLVFGTSDRVYEKLKDAEEGIQALMRELEDGSPRAGQILKQTYDKFDTNLRSDDALLKNYGLLSCFKKDLHKAETYLRVMKCRRFVESSCAF
modifications: A34 background
notes: rpST with leucine 115 changed to alanine, A34 background
B2: L118A + A34: rpST with leucine 118 changed to alanine, A34 background (protein, UniProt P01248 27-216, looked up, variant L118A)
Somatotropin: FPAMPLSSLFANAVLRAQHLHQLAADTYKEFERAYIPEGQRYSIQNAQAAFCFSETIPAPTGKDEAQQRSDVELLRFSLLLIQSWLGPVQFASRVFTNSLVFGTSDRVYEKLKDLEEGIQALMRELEDGSPRAGQILKQTYDKFDTNLRSDDALLKNYGLLSCFKKDLHKAETYLRVMKCRRFVESSCAF
modifications: A34 background
notes: rpST with leucine 118 changed to alanine, A34 background

Assays:
[1] = system: hypophysectomized (hypox) rat; assay: Hypox rat test for growth enhancement; type: in vivo; conditions: growth over a period such as 10 days; relative to rpST positive control
Method: The efficacy of the recombinant animal somatotropin derivatives of the present invention for altering the growth rate of animals is determined utilizing the hypophysectomized (hypox) rat assay. […] The response measured is growth over a period of time such as 10 days and is presented in Table IV as percent of the biological activity of the rpST positive control, which is included in every trial.

[2] = system: somatotropin receptor from purified liver membranes; assay: Liver radio-receptor assay (RRA), competition with 125I-rpST; conditions: competition with 125I-rpST for binding; percent rpST binding
[3] = Solution stability profile of rpST mutant proteins (solubility in vitro at 43° C.); type: physicochemical; conditions: pH 7.4
Method: The procedure described to determine stability profiles is as follows. […] This is filtered through a millipore sterile Millex-0.22 μm filter unit and 0.1 ml aliquots placed into tubes. These are placed in a 43° C. oven and removed at the required intervals. The contents are then diluted with phosphate buffered saline. The supernatant is assayed for monomer and dimer content by HPLC. A mass balance is done. Any precipitated material is recorded. Results are compared with the initial concentrations and a stability profile documented.

| Molecule | Hypox rat [1] | RRA [2] | % Soluble [3] |
| --- | --- | --- | --- |
| B1 | 88.6% of the activity of the | 163% of the activity observ | 0% |
| B2 | 64% of the activity of the | 49.5% of the activity observ | 10% |
